Results published in patent publication EP4541885A1, “OPTIMIZED PHLOROGLUCINOL SYNTHASES” (priority 2023, dated 2025).

Assays:
Experiment in all cases: Kinetic parameters determination (HPLC monitoring of MLC consumed and CoA produced)
[1] = test system: CC(C)(COP(=O)(O)OP(=O)(O)OC[C@H]1O[C@@H](n2cnc3c(N)ncnc32)[C@H](O)[C@@H]1OP(=O)(O)O)[C@@H](O)C(=O)NCCC(=O)NCCSC(=O)CC(=O)O; type: biochemical, Tsukamurella pulmonis; conditions: other: MLC 5-100 µM, sodium phosphate buffer 50 mM pH 7, 30°C, 0.5 µM pure enzyme
Experimental: (§1) The selected PhlD_Tpu sequences are amplified from the yeast expression plasmid and fused with a 6xHis tag encoded at the C-terminus. This fusion is inserted into the pET26b(+) plasmid, between the XhoI and NdeI restriction sites (as shown in Figure 4), with the […] controlling its expression. The recombinant plasmid is used to transform E. coli BL21(DE3) competent cells, which are grown in LB medium (10 g/L NaCl, 10 g/L Tryptone, 5 g/L yeast extract) at 37° C with shaking, in a final volume of 500 mL. The expression of the recombinant plasmid is initiated by adding 0.1 mM of IPTG when the OD600nm reaches 0.4-0.5. The cells are then allowed to grow overnight at 20°C until they reach an OD600nm of approximately 1.5-1.6.
(§2) E. coli BL21(DE3) cells transformed as described in paragraph 1.2.4 above were disrupted by Fast-Prep at a speed setting of 6 m/sec for 3 cycles of 45 sec. The supernatant is filtered on a 0.45 µm membrane before being applied to a 1 mL Talon® Resin column. The column is washed first with 10 column volumes of sodium phosphate buffer (50 mM, pH7; NaCl 100 mM) and with 10 column volumes of sodium phosphate buffer with 10 mM of imidazole ([…], Phosphate buffer 50 mM, 500 mM imidazole pH 8.5; 100mM NaCl). Protein elution is performed using 150 mM imidazole in sodium phosphate buffer (50 mM pH 7, NaCl 100mM). Collected fractions are pooled and diafiltrated using 5 volumes of sodium phosphate buffer (50 mM pH 7, NaCl 100mM) using a 30 kDa diafiltration unit (Amicon ®Ultra, Merck) before reducing the volume to 500 µL.
(§3) The concentrate is applied on a gel filtration column (S200 TRICORN 10/300 Superdex 200). Elution is performed with an isocratic gradient of sodium phosphate buffer (50 mM pH 7, NaCl 100mM). The purity of the various fractions obtained is checked by SDS-PAGE (Mini-PROTEAN TGX Stain-Free Gels, Bio Rad)
(§4) In order to access the kinetic parameters of PhlD_Tpu, the concentrations of MLC consumed and CoA produced were monitored by HPLC. The experiments were run for 120 sec and only the linear part of CoA variation with time was used to calculate initial velocity. The experiments were carried using a range of MLC concentrations (5-100 µM) in sodium phosphate buffer (50 mM pH 7), at 30°C, and with 0.5 µM of pure enzyme. At 10, 20, 30, 50, 60 and 120 sec, 100 µL aliquots of the reaction mixture were quenched with 10 µL of 10% (v/v) formic acid and kept at room temperature before HPLC analysis. With these conditions, the CoA production increased linearly with time until 50 sec. Table 7: HPLC conditions for MLC and CoA separation and quantification.

[2] = test system: Tsukamurella pulmonis phloroglucinol synthase PhlD_Tpu variant M27 (A124P, A154P, S177A, S236P, E268Q, E271R, A298D), SEQ ID NO: 3; type: biochemical
Experimental: as §1, §2, §3, §4

[3] = molecular target: T1, Tsukamurella pulmonis phloroglucinol synthase PhlD_Tpu WT, wild type, SEQ ID NO: 1 (Tsukamurella pulmonis, UniProt A0A1H1FBR5); type: biochemical; conditions: MLC 5-100 µM, sodium phosphate buffer 50 mM pH 7, 30°C, 0.5 µM pure enzyme
T1 sequence (A0A1H1FBR5 1-390): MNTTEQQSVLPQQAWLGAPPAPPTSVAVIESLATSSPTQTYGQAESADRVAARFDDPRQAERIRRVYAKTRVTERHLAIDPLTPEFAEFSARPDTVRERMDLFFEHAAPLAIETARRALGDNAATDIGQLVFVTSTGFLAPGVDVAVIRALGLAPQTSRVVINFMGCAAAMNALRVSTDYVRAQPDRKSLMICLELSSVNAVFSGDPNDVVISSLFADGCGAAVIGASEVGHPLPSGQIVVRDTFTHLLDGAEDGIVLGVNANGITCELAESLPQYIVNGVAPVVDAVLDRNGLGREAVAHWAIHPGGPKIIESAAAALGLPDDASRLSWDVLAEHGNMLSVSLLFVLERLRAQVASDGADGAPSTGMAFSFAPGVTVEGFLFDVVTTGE
Experimental: as §1, §2, §3, §4

[4] = substrate: CC(C)(COP(=O)(O)OP(=O)(O)OC[C@H]1O[C@@H](n2cnc3c(N)ncnc32)[C@H](O)[C@@H]1OP(=O)(O)O)[C@@H](O)C(=O)NCCC(=O)NCCSC(=O)CC(=O)O; type: biochemical, Tsukamurella pulmonis; conditions: other: MLC 5-100 µM, sodium phosphate buffer 50 mM pH 7, 30°C, 0.5 µM pure enzyme; remark: listed apart in the source
Experimental: as §1
E. coli BL21(DE3) cells transformed as described in paragraph 1.2.4 above were disrupted by Fast-Prep at a speed setting of 6 m/sec for 3 cycles of 45 sec. The supernatant is filtered on a 0.45 µm membrane before being applied to a 1 mL Talon® Resin column. […]
In order to access the kinetic parameters of PhlD_Tpu, the concentrations of MLC consumed and CoA produced were monitored by HPLC. […] Table 7: HPLC conditions for MLC and CoA separation and quantification.

Tsukamurella pulmonis phloroglucinol synthase PhlD_Tpu variant M27 (A124P, A154P, S177A, S236P, E268Q, E271R, A298D), SEQ ID NO: 3 (Tsukamurella pulmonis; A124P/A154P/A298D/E268Q/E271R/S177A/S236P)
Km [1]: 4.9 ± 0.544 µM
kcat [1]: 0.28 ± 0.06 s⁻¹
kcat/Km [1]: 57000 M⁻¹ s⁻¹

CC(C)(COP(=O)(O)OP(=O)(O)OC[C@H]1O[C@@H](n2cnc3c(N)ncnc32)[C@H](O)[C@@H]1OP(=O)(O)O)[C@@H](O)C(=O)NCCC(=O)NCCSC(=O)CC(=O)O [malonyl-CoA]
kcat reduced by a factor (M27 vs PhlD_Tpu WT) ([2]; factor of reduction relative to PhlD_Tpu WT): 1.3
KM relative to PhlD_Tpu WT ([2]; relative to PhlD_Tpu WT): twice lower
catalytic efficiency, times higher compared to PhlD_Tpu WT ([2]; relative to PhlD_Tpu WT): 1.6
kcat [3]: 0.38 s⁻¹

B1: Tsukamurella pulmonis phloroglucinol synthase PhlD_Tpu WT, wild type, SEQ ID NO: 1 (Tsukamurella pulmonis) (protein)
chain: MNTTEQQSVLPQQAWLGAPPAPPTSVAVIESLATSSPTQTYGQAESADRVAARFDDPRQAERIRRVYAKTRVTERHLAIDPLTPEFAEFSARPDTVRERMDLFFEHAAPLAIETARRALGDNAATDIGQLVFVTSTGFLAPGVDVAVIRALGLAPQTSRVVINFMGCAAAMNALRVSTDYVRAQPDRKSLMICLELSSVNAVFSGDPNDVVISSLFADGCGAAVIGASEVGHPLPSGQIVVRDTFTHLLDGAEDGIVLGVNANGITCELAESLPQYIVNGVAPVVDAVLDRNGLGREAVAHWAIHPGGPKIIESAAAALGLPDDASRLSWDVLAEHGNMLSVSLLFVLERLRAQVASDGADGAPSTGMAFSFAPGVTVEGFLFDVVTTGE
Km [4]: 10.52 µM
